Source: the DeepSol protein solubility set

experiment: soluble on expression in E. coli; label from the status in PepcDB or PDB records

Row | Sequence | soluble on expression in E. coli
1 | MYTFDTTDHKSPCCNFQWYIFRKQGESRIITCELFGVIVSLENRWDWLEFMIDDSLQLTAFRCPKRDKLGMETLLQLGDVAQVTGNWKLSNGAFLNATKIAIHNNPDVECKYWLQQIQKYKSKVCELEIPSDWIRRQQRAHNLKTDAVLSFSAQVSTAAATCWKLWKKHFNQGGKISLQRLWEVIQRENCPKMQELSSCRRNQIVQLLIHLGYLIPLSKEPETYVLLIDDILDKQVMQIFNQNIASKTLSLREVAYRLEEYFHVEEISLERVEESILRLAYKEKVEQV | not soluble
2 | MGSDKIHHHHHHMTEEVPSMDTAPSVGDVREYWNRNPLLSHELASPGSPAFFASLDTAKREDSDRFAMDYWEFGQWAGQRVLDIGCGPGWLTVQYARGGAQVDSVDLTPRAVELAQAHLALHGQSATVREGNAEELPFPDDQFDLVAASGVLHHTPDTQATFREAFRVTKPGGQGKITLYRKGILHHPAVFAMTRIAMRLFGVKHPGADLGKNSSDVDDFIRRYDGDGNPVGIGKTDADWAADLAAAGWVVQGHEVHFFPRRFLPCARLIPVWLHEFLDTRLGTMVYFRLRKPIISGK | not soluble
3 | MRDIGGSMSSASTSATIVKRSPPNDTSTSSGVSCDVSPNSMTSPSSGSDQNQNNNSLNKCKCCPYGYHIDLGFVSYAQNVSNGFVSRQGTPTNMTLRGNGADRHLMSPLLDNSIFSDSLDNLMSDFDDVLAPHKEVEKKKTVQDIRSRMQGGYNSDYTTYRRGPPEIPRRAHFEQAKPPPLSRPINLGFSGSRSNTPTQRFNAPNGTGNGYSTALAKTISEIRARNAESPFPDSRVGTPIDLGLHQQNNGHVTPSRFANNRYDDLPPTPTPTFRRAPSQGDLPRGFSTAPSTGPGDFASLRRGREFALPPEQEHHSRRFFSASPKLPRRGLQAGPSIDVESHFTYAQTQNGQKVLARTQSTSTSPPPQAPASAFEPVKPLSNGSPSPTHQVQKPIVTRSIAVSTGPLPAPKPCGECAGLRKELFLAVEKIPPPPPESCHVSTSTVLLEFADQSVGSEPIKHCHVALGTEPTSTREVGTVPVTVRSLHIDTQTDPAASTVDAACSPVLFETQEEAVKVTVAASSSAAAADCEECLKRQDVFTRNVGVGACSISDKICVSCDNQVVEADENEAPGFKTDTKDDQKQRDFEIAKANAVKKLLTNEQKSNFQRGTAVSKSARYDRKRSVDDLDYIVDKKNATSPATSSQEAPPTVPDASESPLTTKVVLKKEVFIEPPKQMLPDPIPARIPRPKISKWAVTSEEEAAETPDEQEEAQDRLTPLRSDMRQLGNRWNRNQVTTASNTTPHLPYSGATSQEDVSDSDAESDCSAHSDATFEVNDDVFDAAPFEVSDRLREALENFNSSILEPGSVAEETVEWSAKLVRHVWMTTAGNSSSRYENVDRFVAELGNLGPQILHMVVNFCDQNGNTALHYAVSHANFAVVSSILDSGECDLDAPNRAGYTAVMLAALSQLDDDMEKAVVHRLFQMGNVNAKASQHGQTALMLAVSHGKKTTTELLLACGANVNEQDQDGSTALMCAAEHGHKELVKMLLAENLVNASLTDVDNSTALSIALENDHREIGVMIYAYLNYGRLDISGPTSTI | not soluble
4 | GSSAVNQENERLMEEYERLASELLEWIRRTIPWLENRTPEKTMQAMQKKLEDFRDYRRKHKPPKVQEKCQLEINFNTLQTKLRISNRPAFMPSEGKMVSDIAGAWQRLEQAEKGYEEWLLNEIRRLERLEHLAEKFRQKASTHETWAYGKEQILLQKDYESASLTEVRALLRKHEAFESDLAAHQDRVEQIAAIAQELNELDYHDAVNVNDRCQKICDQWDRLGTLTQKRREALERMEKLLETIDQLHLEFAKRAAPFNNWMEGAMEDLQDMFIVHSIEEIQSLITAHEQFKATLPEADGERQSIMAIQNEVEKVIQSYNIRISSSNPYSTVTMDELRTKWDKVKQLVPIRDQSLQEELARQHANERLRRQFAAQANAIGPWIQNKMEEIARSSIQITGALEDQMNQLKQYEHNIINYKNNIDKLEGDHQLIQEALVFDNKHTNYTMEHIRVGWELLLTTIARTINEVETQILTRD | soluble
5 | MTITPNKLTLKIGRAEGRPGDTVEIPVNLYGVPQKGIASGDFVVSYDPNVLEIIEIEPGELIVDPNPTKSFDTAVYPDRKMIVFLFAEDSGTGAYAITEDGVFATIVAKVKEGAPEGFSAIEISEFGAFADNDLVEVETDLINGGVLVTNKPVIEGYKVSGYILPDFSFDATVAPLVKAGFKVEIVGTELYAVTDANGYFEITGVPANASGYTLKISRATYLDRVIANVVVTGDTSVSTSQAPIMMWVGDIVKDNSINLLDVAEVIRCFNATKGSANYVEELDINRNGAINMQDIMIVHKHFGATSSDYDAQLEHHHHHHMRGSHHHHHHTDLRADKASSIELKFDRNKGEVGDILIGTVRINNIKNFAGFQVNIVYDPKVLMAVDPETGKEFTSSTFPPGRTVLKNNAYGPIQIADNDPEKGILNFALAYSYIAGYKETGVAEESGIIAKIGFKILQKKSTAVKFQDTLSMPGAISGTQLFDWDGEVITGYEVIQPDVLSLGDEPF | soluble
6 | MIQLKNVGITLSGKGYERFSLENINLEVNGEKVIILGPNGSGKTTLLRAISGLLPYSGNIFINGMEVRKIRNYIRYSTNLPEAYEIGVTVNDIVYLYEELKGLDRDLFLEMLKALKLGEEILRRKLYKLSAGQSVLVRTSLALASQPEIVGLDEPFENVDAARRHVISRYIKEYGKEGILVTHELDMLNLYKEYKAYFLVGNRLQGPISVSELLESSIVEGERNDALLVLDIMDKKVSIVKGDLGMKFGALGSLNRIYGIIGA | soluble
7 | MIQVYKYDENFMFVEPLVVTEIDEKGDYIFPDNCTSVPLPDSPSYYLPRFDLSKQVWIETASQEYIDSLSPPPEEPSDVELLGQSLAEARILILKQNRIILNLQNEVKNLKDGTTALEHHHHHH | soluble
8 | MGSDKIHHHHHHMESLKKCFDLQGKEIVSIVGSGGKTSLMWALAKTYRKEAVLVSTTTKIGFPQRQLYDYFYTNHFEKITPNICGITLAGTAINNQTKLTMPAMTSFQTLFQHFTKVFLEADGSKQRPLKGWSSYEPVILKETTTTIGVLPISVIGQKIDETTIHRLPLFLELTDAQLQEPITETLLAQLIDHPKGLFKESQGQRILCLNQTHTRREFVQAMNVCLQLPKSCFEKLDKIIACNMELEKGLILWEKSVKTSKKN | not soluble
9 | MGSDKIHHHHHHMEHAQMSEKTTNELEKLREHIDSVDQQLLHLLRKRLDLVAQVGGVKHAAGVPIYAPQREASMLAKRREEAAKMNVSPQLIEDILRRLMRESYLNEKDVGFKQVKTDLGHVVIVGGQGKLGGLFAQMLSLSGYQVKSLDKDDWQQADAIFDGAGMVIVTVPISITCELIRDKLTSLPSSCILADLTSIKEKPLEAMLASHQGPVVGLHPMFGPDVGSLAKQVVVVCHGRGREQYEWLLEQIGIWGARLVEADAQQHDKAMQLVQAMRHFSSFVYGLNLYREAADIDNLLQFSSPIYRLELAMVGRLFAQSPELYADIIFAQQESLTAIGDYLDNYAQALELLKRGDRQGFIREFEEVAAWFGDFAPQFQRESRAMLQSVNDMKTG | not soluble
10 | MSLNKGSERTFNDLVEFIGEEMDFESGFYNDSYLDRRITARMRRTDTEDYQTYQRLLERDNGEREELLDSLSINVTSFFRNPEAWERLRPVLRELTENNRRVRLWSAPSADGREPYSAAMLALDDPEIDARRVEITATDINADILEEARKGTYATSQTTDIADELEPLDDYTKYIEQDGDTFQVRDQVKEMVTFEQHDLIRGDPKRDFDLVFCRNLLIYIDSEFKVPIFETIRGSLREGGYLMIGMTETLPAECRDSFEAVDKRHRIYRREGHHHHHH | not soluble
11 | MGSDKIHHHHHHMLASDLLVIDFAQKDDVLKLYPEAPLLSSDKAQWDGIQLQYHRHPPHQLSENHSKQHRIIIHDRSPSPPMVEEMIEHRFQKRQFGYGDVTVVPADVLNSAYWNTEYEFITLSFEARTFARHTFDLTTATDIELVPSFSKPDQLIYSLGFALKSELESSGVGSRLYIDSLTAALMTHLLRHYSAQRSISRPQSGLAKCQLQKVIDFINQNLEQDLALAELAAIVQMSPSYFSTLFKHSTGLAPHQYVIQCRVDRAKQLLRQSNLTIAEIAYSLGFTHQSHLSRHFKRLVGVSPKVFIKSQ | not soluble
12 | MGSDKIHHHHHHMQEVATEARIGPNSIIQTVAAARAQYGEEAVADWLRRTGRGHLLEAMPDHMLPESEFGDLIADLRFWLGVSAAADVLAQSGDLTAQYVATHRVPVPIRWLLPRLPVGLALRIFLPAIARHAWTFAGSGRFGYTLQPAWRLTLADSVEARGVRATEPVCAYYRAAFEGLLRRVVCDRLRVHEVACRAMGTGRCEFAVELSR | not soluble
13 | MIIILRYNKQVFYKYKGDSVMRNRTSVMRKRQMQEVTAKRTKLGKIAMTQKLEATEKQFIVTQGQPCQTQLAEGKFLSYQYNDQIFVHGGRCIELVDSNIVSTAHASLLITILLEGKLSFGYDDLQFDLDASDTPQGVVVNLIHPANFRRSLIENNQINKINILVKPQWLEYRSEESCCSTAFFETHQAFYHLELNQALTELATELTNRDTPHRFQDKLEIESLIYQILFHATQQMPQDFCPQNTNSYRDK | not soluble
14 | MGSDKIHHHHHHMDMQQLKPSREHDAPLYLQLYRRYRDAIIARKLHPGDRVPSVRSLASELNLARGTVEMAYQMLASEGYFLTRGPAGTIVSPQLEKLTESGYSTTSLSQIPSRPQIETAQVQPFQLGLPALDAFPRKTWARLAGHNLRTLDTAAMISPDPAGYEPLRRAIATYLGISRGITCTHEQVFITAGYRGALELVCRTLLQPGDIGWFEDPGYIFARQFLARAGMHLEPVPVDEEGLNVDIGQQRAAEARFAVVTPTHQSPMGMALSLPRRLQLLEWASHHRSWIIEDDYDSEFRYHGRPLPALKSLDRDGRVLYTGTFSKVLFPGLRLAYLVVPEPQIERFRDTANHFCCAGSILPQATVANFMEQGHFARHLRRMRSLYAIRRGYLVDELLQALGSHLTVQPQAGGIHVLATLTARGNDQSLAAAAQSHGLAIQALNDWRTSKTSRGGLLMGFTNVTEPAMAKALVHRLAAAIGLS | not soluble
15 | SLRLKLSLTPKQDFSFDKINKHTIQGFIYSLLKDTEFGEMHNQPRFKFWCFSDIFPPNDFVKGEDKYLLISSPREEFINVLYERLDNLEEVNLNNFKFEVSELKKFDLKVKNKFITGSPIVLYKDKDRGEYIKFYDDDFDLMFFVQRLQDNAVKKYKAFYNEEPVLNGFIFDRISPRVRNGRVDVYVRIAKKGREFLVVGTTWKLLEKIKIRKEERKFYKFIMDCGLGEKNSLGFGFINPIK | not soluble
16 | MGHHHHHHSHFRNCILGLAVGDALGMPVEGLSIENIRQLYGEVRDFLPSPYGDLNAGEWTDDTEQMVVLAESILETVYFDPENFAERLKRWFLETNSRRIGPSSTKAISNLMRGVHWTRAGVFSDTCGAAMRVAPIGLVYHFSLNLVERYAEISARVTHTGTAAIGGAVAVAVAIACNVLDFSDEEMLEEVLRRVEAYDNLLAEKIRYANEISDRDVEYAVEKLGNSISSLDVVPMAFYSYFAGKDFEESLIKAVNAGGDADSIAAICGAIKGAKGFAIPERWLEGLKDREFLEELATK | not soluble
17 | MHIQIDGIPIEILRKPIKNLNLRIYPPDGLVKVSVPLKYSEQLIKQQLQEKSKWIRAQCEQIRARSFYREPSLQTGATIPFKGKSYLLIVEEHYGPSQILIKNELIYCYTKPDLTPQQKQNILDRWYRKEMNLVIPRLIQQWEAIMKVKINQWGIKKMKTRWGSCNPRAQRIWLNLNLIKKPLECLEYVLVHEMVHILEASHNKRFYALMTQFMPKWQEYQRILEGTPNASTFARLEHHHHHH | not soluble
18 | MLCIDSSRDLTYGVVMTFKVMEFQKGRLQNLYWKRDVCASCKGNQNFVCLKKQVCAIRTPSCKGRGGSVGCSLGIQLAFSGTDKHLAVLNSWYEVDNLKQYSLYGLYSNLKSSLTNQLNNFF | soluble
